Target: 2D9-binding PAGs (immuno-affinity purified PAGs used as ELISA standards)
Assay: sandwich ELISA on 2D9-coated plates with immuno-affinity purified PAG standards, log-logit transformation, SoftMax

B1: monoclonal antibody 2D9 (antibody, mouse IgG1, kappa, V domains shown)
VH: QVQLQQSGAELMKPGASVKISCKATGYIFSNYWMEWVKQRPGHGLEWIGEILPGSDITNYNEKFKDKATFTADSSSNTAYMQLSSLTSEDSAVYYCARAGSGYYGVYYYAMDYWGQGTSVTVSS
VL: DVLMTQTPLSLPVSLGDQASISCRSRQSIVHSNGNTYLEWFLQKPGQSPKLLIYKVSNRFSGVPDRFSGSGSGTDFTLKISRVEAEDLGVYYCFQGSHVPLTFGAGTKLELKR
  Kd: 0.9 nM
